{
  "source": "patent US6995019B2",
  "about": "“Fluorescent isothiocyanate (fitc) sinistrin, its production and use” (priority 2000, dated 2006)",
  "key": {"[1]": {"settings": "background statement on prior art; cited from earlier work"}, "[2]": {"settings": "background statement on prior art; cited from earlier work", "remark": "listed apart in the source"}},
  "data": [
    {"substance": "FITC-inulin", "values": [
      {"measurement": "fluorescence (presence of substance) in lung, liver and kidney sections", "setting": "rat, 30 mg per kg at intervals of 2 days, sacrificed 4 hours after last administration", "value": "considerable fluorescence is observed"},
      {"measurement": "effect of deposition in the liver", "setting": "rat, liver, substance found mainly intracellularly", "value": "irreversible cell damage (cell death)"},
      {"measurement": "effect of deposition in the lung", "setting": "rat, lung, substance found in the corpuscles", "value": "leads to microstenoses and ultimately to embolism"},
      {"measurement": "fluorescence (accumulation) in liver, lung and kidneys", "setting": "rats sacrificed 6 minutes after the injection, rinsed with saline solution", "value": "accumulates in the liver, lung and kidneys"},
      {"measurement": "solubility in water", "setting": "[1]", "value": "only very slightly soluble in water"},
      {"measurement": "blood pressure after injection into an experimental animal", "setting": "[2]", "value": "transient reduction in blood pressure"}
    ]},
    {"substance": "inulin", "values": [
      {"measurement": "solubility in water", "setting": "[1]", "value": "only very slightly soluble in water"},
      {"measurement": "blood pressure after injection into an experimental animal", "setting": "[2]", "value": "transient reduction in blood pressure"}
    ]}
  ]
}
